Where a chain is given by its changes, count along the chain named.
T1: Soluble ASGR-1 (recombinant, biotinylated) (human, UniProt P07306 62-291, limits assumed, biotinylated)
T1 construct: also called recombinant, soluble ASGR-1 biotinylated protein
T1 sequence: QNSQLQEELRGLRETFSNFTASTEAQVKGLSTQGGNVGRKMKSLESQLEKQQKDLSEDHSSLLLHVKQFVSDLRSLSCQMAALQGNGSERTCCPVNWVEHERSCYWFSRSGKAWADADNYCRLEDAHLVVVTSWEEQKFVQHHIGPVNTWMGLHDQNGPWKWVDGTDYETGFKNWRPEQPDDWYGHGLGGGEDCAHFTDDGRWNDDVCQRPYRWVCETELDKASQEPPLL

B1: 184E7 (antibody, V domains shown)
VH: QVQLVQSGAEVKTPGASVKVSCRASGYTFTSYNMHWVRQVPGQGLEWMGWINPNNGGSNYTQKFQGRVTMTRDTSISTAYMELSRLRSDDTAVYYCARKFGDWGQGTLVTVSS
VL: DIQMTQSPSSRSASIGERVTITCRASQGISNYLAWIQQKPGTAPKSLIYAASSLQSGVSSRFSGSGFGTDFTITISSVQREDFATYYCQQYNGYPFTFGHGTKVDIK
notes: Tested as hybridoma supernatant
B2: 25A4 (antibody, V domains shown)
VH: QVLLVQSGAEVKRPGASVKVSCKASGYTFTNYDINWVRQATGQGLEWMGWMYPNSGNTGYAQKFQGRVTMTRNTSISTAYMELSSLRSEDTAVYYCASSSGWYYFDYWGQGTLVTVSS
VL: DIVMTQFPDSLAVSLGERATIKCKSSQSVLYSSHNNNYLAWYQQKPGQPPKLLLYWASTRESGVPDRFSGSGSGTEFTLTISSLEAEDVAVYYCQQYYSTPPTFGQGTKVEIK
notes: as for B1
B3: 26C4 (antibody, V domains shown)
VH: B2 VH with L3Q, R13K, T41S, Y52N, K63R, S77N
VL: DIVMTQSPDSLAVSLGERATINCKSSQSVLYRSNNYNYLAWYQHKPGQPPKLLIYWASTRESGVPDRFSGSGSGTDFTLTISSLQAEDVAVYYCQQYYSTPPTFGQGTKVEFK
notes: as for B1
B4: 29H8 (antibody, V domains shown)
VH: B2 VH with L3Q, K12Q, R13K, Y52N, K63R, T78A
VL: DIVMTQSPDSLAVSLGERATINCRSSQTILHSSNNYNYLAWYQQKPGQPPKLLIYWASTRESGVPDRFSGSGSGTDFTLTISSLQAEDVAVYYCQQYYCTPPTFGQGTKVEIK
notes: as for B1
B5: 7E11 (antibody, V domains shown)
VH: QVQLVESGGGVVQPGRSLRLSCAASGFTFSSFGMHWVRQAPGKGLEWVAIIWHDGSNKYYADSVKGRFTISRDNSNNTLYLQMSSLRAEDTAVYYCARDLSMGGMDVWGQGTTVTVSS
VL: DIQMTQSPSSLSASVGDRVTIACRASQNIISYLNWYQQKPGKAPKFLIYTASSLQSGVPSRFSGSGSGTDFTLTISSLQPEDFAIYYCQQTYSTPLTFGGGTKVEIK
notes: as for B1
B6: 194A4 (antibody, V domains shown)
VH: QVQLVQSGTEVKKPGASLKVSCKASGYTFTVYYLNWVRQAPGQGLEWMGWINPNSGGTNYAQKFQGRVTMTRDTSISTAYMELSRLRSDDTAVYYCARGYDILTGWGQGTLVTVSS
VL: EIVLTQSPGTLSLSPGERATLSCRASRGVSNIYLAWYQQKPGQAPRLLIYGASNRATGIPDRFSGSGSGTDFTLTISRLEPEDFAVYYCQHNDYSMFTFGPGTKVDIK
notes: as for B1
B7: 48B12 (antibody, V domains shown)
VH: EVQLLESGGGLVQPGGSLRLSCAASGFTFSSYAMNWVRQAPGKGLEWVSAISGRGGNTFYADSVKGRFTISRDNSKNTLYLQMNSLRAEDTAVYYCAKRETYNWNYEGFDYWGQGTLVTVSS
VL: SYELTQPPSVSVSPGQTARITCSGDALPKKYAYWYQQKSGQAPVLVIYEDSKRPSGIPERFSGSSSGTMATLTISGAQVEDEADYYCNSTDSSGNHVVFGGGTKLTVL
notes: as for B1
B8: 194C1 (antibody, V domains shown)
VH: QVQLVESGGGVVQPGRSLRLSCAASGFTFSSYGMHWVRQAPGKGLEWVAVIWYDGSNEHYADSVKGRFTISRDNSKNTLYLQMNSLRAEDTAVYYCARNRGVGYYGLDVWGQGTTVTVSS
VL: DIQMTQSPSSLSASVGDRVTITCRASQGISNYLAWFQQKPGKAPKSLIYAASSLQSGVPSKFSGSGSGTDFTLTISSLQPEDFATYYCLHYLTYPLTFGGGTKVEIK
notes: as for B1
B9: 197G3 (antibody, V domains shown)
VH: B8 VH with A23V, Y32H, E58K, H59N, N99D, R100P, G101S, Y105D, L107M
VL: DIQMTQSPSSLSASVGDRVTITCRASQGIGNHLAWFQQKPGKAPKSLIYAASSLQSGVPSKFSGSRSGTDFSLTISSLQPEDFATYYCQQYSNYPVTFGPGTKVDIK
notes: as for B1
B10: 22G5 (antibody, V domains shown)
VH: EVQLLESGGGLVQPGGSLRLSCAASGFTFSSYAMNWVRQAPGMGLEWVSVISRSGGYTYYADSVKGRFTISRDNSKNTLYLQMNSLRAEDTAVYYCASRLAVAGSEAFDIWGQGTLVTVSS
VL: DIQMTQSPSSLSASVGDRVTITCRASQNISSYLNWYQQKQGKAPKLLIYAASSLQNGVPSRFSGRGSGTDFTLTISSLQPEDFATYYCQQSYRTPLFTFGPGTKVDFK
notes: as for B1

Molecular target: T1, Soluble ASGR-1 (recombinant, …)
Experiment: limiting antigen bead FACS; biotinylated soluble ASGR-1 coated at 2.5 ng/mL on LumAvidin beads;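 further: hybridoma supernatants of ligand-competing antibodies bound to antigen-loaded beads, read by flow cytometry on an iQue Screener in calcium-containing buffer, higher fluorescence meaning stronger relative affinity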

| Binder | FACS Geomean |
| --- | --- |
| B1 | 40200 |
| B2 | 18000 |
| B3 | 12000 |
| B4 | 12200 |
| B5 | 4660 |
| B6 | 38900 |
| B7 | 27000 |
| B8 | 16900 |
| B9 | 17700 |
| B10 | 1080 |

Reference: US20210163601A1 (Amgen, published 2021)
